Experimental data reported in the supplement of paper PMC9170038.

Tested on: K4 kissing-loop RNA reporter
Assay: apparent KD of K4 kissing-loop reporter; higher = weaker reporter binding
Settings: Eterna round: R107
Procedure: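 RNA-MaP round R107: designed RNA switches with theophylline, tryptophan, arginine or FMN aptamers are transcribed on-chip within common flanks. They are titrated with a labelled K4 kissing-loop RNA reporter in RNA-MaP buffer (100 mM Tris pH 7.5, 80 mM KCl, 4 mM MgCl2), without ligand or with the indicated ligand. Median apparent KD per design.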

[1] = input ligand: theophylline 20 uM
[2] = input ligand: tryptophan 2.4 mM
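Also: bound reporter read as fluorescence of individual clusters on recovered sequencing chips by microscopy, with normalized cluster intensities fitted with a binding model.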

Row | Sequence | apparent KD of K4 kissing-loop reporter (input ligand: FMN 200 uM) | apparent KD of K4 kissing-loop reporter (input ligand: arginine 13.2 mM) | apparent KD of K4 kissing-loop reporter (input ligand: none) | apparent KD of K4 kissing-loop reporter [1] | apparent KD of K4 kissing-loop reporter [2]
1 | UAGUCCUAGUGAUGGUUAUCACGUGGUGGGCGAGGACCGGUACGGCCGCCACUCGACUUUGCAGUGAUGUUGCAAUCCGGACAAU [Exclusion - Tryptophan A (Freestyle 17)] | 194 nM | 215 nM | 240 nM | 224 nM | 258 nM
2 | UAUACGCUAGUGAUGUUGGCGAAGACUGAAGGAGCGUGCGAGAGUACAGGUAGGUCGCAGUCAGACAGAUUGUACCUGUCUUAUG [Arg A SS t10] | 268 nM | 243 nM | 295 nM | 349 nM | 356 nM
3 | UAUACUAGACAAGAGAGAAUUCUCUCAAGAGAGGAUAUCCGAAUUCGGAGAAGGCUCUCUCAGUGAUGUUGGGAAUAGUCUAGAA [AK6 SS FMN A] | 150 nM | 151 nM | 188 nM | 229 nM | 177 nM
4 | UAUAUAGUGAUGUUAUAUAUACAUUCGGAAGGAGCGUGGUAAAACACAGGUAGGUCGCUGAAAUAAUUAAAAUAAUUUUCUUUUU [AstrosSSArgA#1] | 255 nM | 231 nM | 279 nM | 239 nM | 231 nM
5 | UAUAUAUGAUGUGAUACCAGUGAAAAGCCAGUGAUGUUGGAAGAACUGGUAUAUAAAUAACACCCUUGGCAGCACAAUCACGUAU [theophylline b exclusion] | 271 nM | 261 nM | 266 nM | 382 nM | 268 nM
6 | UAUCAGAUUACUGAUACCAGUCUAAAGACAGUGAUGUUGUCUGAUCGACCACGAUCCAAGGACCCUUGGCAGCAGUGUACUAUUC [#30 K4 Theophylline B Same State] | 177 nM | 183 nM | 194 nM | 205 nM | 191 nM
7 | UAUUAAUUGACGGCCGCCACUAUGGUGAUUUAUUUGUUUGAGUGAUGUUUUGAUGUUUGAUUUUGUAGGACCGGGUUAUGUGUUA [pokcmullin] | 962 nM | 738 nM | 853 nM | 748 nM | 680 nM
8 | UAUUAAUUGUCAGGAUAUCGUAUUCGAGUGAUGUUCGUAUAUCGACGAUAGUCGAUAUUAUUUAUACGAGAAGGGACAUUAUUUA [JR_SSFMNB_Sub005] | 292 nM | 260 nM | 330 nM | 274 nM | 285 nM
9 | UAUUUAUUAACUGAUACCAGACUUAAUGAAUUGUAAAUUACUAGUGAUGUUAGUGAAUCUGUCCCUUGGCAGCAGUAUUUAUUAA [JR_Nu_ExcTheophyB_Sub028] | 111 nM | 169 nM | 128 nM | 170 nM | 85.1 nM
10 | UCAUCGGUACAAGGAUAUUAGAGGUAGUGAUGUUACCCGUUUUUUAUACAUCGAUGUCACCCUAACUAAGAAGGUGUUCAAACUU [theeternabot_exclusion_KL_FMN_B_7] | 62.5 nM | 52.7 nM | 50.2 nM | 54 nM | 38.4 nM
11 | UCCACGCUUAGAGGAUAUCGGAUUAGAGUGAUGUUCUAAAGAAGCCCAGUGAUGUUGGAUGGUAUACGAGAAGGCUGAGGCGUGG [Same State FMN B GF 3] | 229 nM | 629 nM | 725 nM | 588 nM | 492 nM
12 | UCCUGCAAUCGGCCACGAAAGUGGAUGGAUACCAGAGUCGAAAGACUCCCUUGGCAGCCAGUGAUGUUGGAAGCAGGUAAAUAAA | 838 nM | 499 nM | 470 nM | 538 nM | 505 nM
13 | UCCUGCAAUCGUCCACGAAAGUGGAUUGAUACCAGAGUCGAAAGACUCCCUUGGCAGCGAGUGAUGUUCGAAGCAGGUAAAUAAA | 432 nM | 365 nM | 417 nM | 363 nM | 337 nM
14 | UCCUGCAAUCUACCACGAAAGUGGAUGGAUACCAGAGUCGAAAGACUCCCUUGGCAGCCAGUGAUGUUGGAGCAGGUAAAAUAAA | 670 nM | 462 nM | 638 nM | 514 nM | 529 nM
15 | UCGGACCCUGGAGGAUAUGAGUCGAGUGAUGUUUGGCGGUCCAUGCCGGUGCGGCGUUAUGCCCUUUUAGAAGGCCAGGGUCCGA [#2 Exclusion - FMN B Attempt #13 (HarryS)] | 287 nM | 182 nM | 307 nM | 351 nM | 289 nM
16 | UCUGCAAAGUCGGCCGCCACUCCGGGCCCUAUAAAUGGGCGCAGUGAUGUUGCGGCUAGGCCUCUGAGGACCGGGACUUUAUAGA [Anarisgema] | 37.4 nM | 45.8 nM | 184 nM | 88.3 nM | 175 nM
17 | UCUGGAGUAUAUGAUACCAGCAGUGAGAGACAGGAAGUAUAGUGAUGUUAUAUGAGAGAAUGCCCUUGGCAGCGUGUGCGGUGGG [SSTheophylB.R] | 94.3 nM | 85 nM | 71.1 nM | 106 nM | 62.7 nM
18 | UCUUGUUCAUAGUGAUGUUAUGAGCUUAGAAAGGAUAUGAUCAACAUCAGAAGGUUCAAGGAUUCCCGACUCCAACUUCGGUUUC [theeternabot_sameState_KL_FMN_A_43] | 280 nM | 270 nM | 306 nM | 339 nM | 332 nM
19 | UGACGUUUGGGAAGGAGCGGAAUGUAAUACGGAGCGCGUGGAGAUGCAGUGAUGUUGCAGAUCCAGGUAGGUCGCCCAAGGGACG [Zati] | 95.3 nM | 83.5 nM | 80.9 nM | 79.3 nM | 79.6 nM
20 | UGACUGGAUGGAAGGAGCGCUAAACUCCUAGUGAUGUUAGGGACACGAGACAAAGUCUCGAGGCAGGUAGGUCGCCAUCUAGUCU [FiskerMod 7 - Jieux - Same State - Arginine B] | 225 nM | 198 nM | 197 nM | 250 nM | 212 nM
21 | UGACUGGAUGGAAGGAGCGCUAAACUCCUAGUGAUGUUAGGGAUAUGAGGCAAAGCCUCGAAGCAGGUAGGUCGCCAUCUAGUCU [FiskerMod 20 - Jieux - Same State - Arginine B] | 159 nM | 114 nM | 148 nM | 160 nM | 156 nM
22 | UGAUACCAGACGGCCGCCACUCCUGCAAGUCAAAGACUUGCUAAGGAAAUCGUCCAGUGAUGUUGGAGGACCGGGUCUGGUAUCU [TrypBX 17 #SwitchBubble #Palindromic #StaticStem] | 931 nM | 670 nM | 830 nM | 717 nM | 899 nM

Row | Sequence | apparent KD of K4 kissing-loop reporter (input ligand: FMN 200 uM) | apparent KD of K4 kissing-loop reporter (input ligand: arginine 13.2 mM) | apparent KD of K4 kissing-loop reporter (input ligand: none) | apparent KD of K4 kissing-loop reporter [1] | apparent KD of K4 kissing-loop reporter [2]
23 | UGAUAGGACAGAAGGAGCGGAAGUGAUGUUUCCAAAAGGGAAGGUCGACAAAGUCGACCCUUCCAGGUAGGUCGCUGUCCUAUCU [ArgBX 9 #Palindromic #SwitchBubble #StaticStem] | 75.9 nM | 72.5 nM | 73.9 nM | 86.1 nM | 68.7 nM
24 | UGAUAGGACAGAAGGAGCGGCAGUGAUGUUGCCAAAAGGUUAAGGUGUCAAAAGACACCCUGCCAGGUAGGUCGCUGUCCUAUCU | 202 nM | 236 nM | 212 nM | 214 nM | 208 nM
25 | UGAUAGGACAGAAGGAGCGGUAGUGAUGUUACCAAAAGGAUAAGGUGUCAAAAGACACCCUGCCAGGUAGGUCGCUGUCCUAUCU | 102 nM | 100 nM | 107 nM | 98.8 nM | 87 nM
26 | UGAUUGCCAGUGAUGUUGGCAGUGACUGAAGGAGCGCGUGAAAACGCAGGUAGGUCGCAGUUGAGUGCCAAUUGAUCGAAAGAUC [KL-XArg-A5] | 286 nM | 275 nM | 244 nM | 328 nM | 249 nM
27 | UGAUUGGCGAAAGUAGUGAUGUUACGAACAUAGGAUAUUAGAGGAAUAAGAAGGAUGAAUGAGAAAGGAAUAAAUUGUUGGUUGG [#08 K4 FMN A Same State] | 139 nM | 64 nM | 165 nM | 193 nM | 102 nM
28 | UGCGCUGUGUACUGAAAUGUUAUGCGGGAUACCAGAGUCUUUUUAUUCCCUUGGCAGCUUGAGUGAUGUUUGAUGCCGUUCUUGU [po,,mmullin] | 490 nM | 256 nM | 548 nM | 577 nM | 418 nM
29 | UGCGCUGUGUCCUGAAAUGUCCUCCGGGAUACCAGAGUCUUUUUAUUCCCUUGGCAGCUUGAGUGAUGUUUGAUGCCGUUCUUGU [yvvymullin] | 668 nM | 481 nM | 713 nM | 576 nM | 515 nM
30 | UGCUUAGUGAUGUUUGAUUUGGUGCAUGCAGAGGAUAUAGGGUGCUUUAGAAGGCUGAGGAGUGCGCCGAGUGAUGUUCGGCGCU [Exclusion FMN A GF11] | 192 nM | 164 nM | 206 nM | 182 nM | 170 nM
31 | UGGAGUUGACGAAAAGUCAACUCCCGAGAAGGAGCGGACGAAAGUCCAGGUAGGUCGCUCACUACCAGUGAUGUUGGUACUAAAA | 148 nM | 196 nM | 129 nM | 135 nM | 111 nM
32 | UGGAGUUGACGAAAAGUCAACUCCUGAGAUACCAGUGACGAAAGUCACCCUUGGCAGCUCACUGCCAGUGAUGUUGGUAAAUAAA [#OpenEnded 3] | 78.1 nM | 92.5 nM | 159 nM | 568 nM | 81.8 nM
33 | UGGAGUUGACGAAAAGUCAACUCCUGGGAAGGAGCGGACGAAAGUCCAGGUAGGUCGCUCACUACCAGUGAUGUUGGUACUAAAA | 144 nM | 351 nM | 296 nM | 200 nM | 215 nM
34 | UGGAUAUAGUGAUGUUAUAUAGAGAGUGAUACCAGUUUAGAGAAGAACCCUUGGCAGCAUAGAAGAGUAUCAUUGGAGAAGAAUG [ExTheophyl.Aq] | 243 nM | 193 nM | 242 nM | 181 nM | 155 nM
35 | UGGGAUGGUUCGGCCGCCACUAUGGUGCAGUGAUGUUGCAUCGUAGUAAAUCAUUCCAUUUACCGUAGGACCGGGAACCUUACGC [Mavelege] | 108 nM | 82.7 nM | 94.9 nM | 83.4 nM | 86.2 nM
36 | UGUACCGAGUCAGGAUAUCAACGACUGACAAAAGUCGGUCGAAUAUCCAGUGAUGUUGGAAAUAAAUGAGAAGGGACUUGGUACU [FmnBS 14 #SwitchBubble #StaticStem] | 125 nM | 258 nM | 276 nM | 264 nM | 265 nM
37 | UGUACCGAGUCAGGAUAUCGCGUCGAAAGACGAAACGAGUGAUGUUCGAAUCGAUCGAAAGAUCGUCGAGAAGGGACUUGGUACU [FmnBS 22 #SwitchBubble #StaticStem #DoubleMagnetSystem] | 219 nM | 676 nM | 642 nM | 569 nM | 589 nM
38 | UGUACCGAGUCAGGAUAUGGCGUCGAAAGACGAAUUCUAGUGAUGUUAGGGAUCUGCGAAAGCAGUCUAGAAGGGACUUGGUACU [FmnBS 26 U36+U68] | 356 nM | 407 nM | 508 nM | 684 nM | 512 nM
39 | UGUAUAUGAUGUGAUACCAGUGAAGAGCCAGUGAUGUUGGUAGAACUGGUAUAUAAAUAACACCCUUGGCAGCACAAUCACGUAC [whbob_Ex_Theo_B_sa98] | 192 nM | 188 nM | 202 nM | 265 nM | 196 nM
40 | UGUAUGUGAUUUGAUACCAGACCAGCUGAUGGAUCACGAGUGAUGUUCGUGUUGGUUUGGGUCCCUUGGCAGCAAAUCGCAUACU [KL-SSTheoB14] | 308 nM | 282 nM | 324 nM | 248 nM | 285 nM
41 | UGUAUGUGAUUUGAUACCAGACCAGCUGGAGGAAUCUGAGUGAUGUUCAGGUAGGUUUGGGUCCCUUGGCAGCAAAUCGCAUACU [KL-SSTheoB17] | 251 nM | 196 nM | 236 nM | 192 nM | 209 nM
42 | UGUAUGUGAUUUGAUACCAGACCAUCUUGUGAAUGAUGAGUGAUGUUUAUUAUGGUUUGGGUCCCUUGGCAGCAAAUCGCAUACU [KL-SSTheoB25] | 926 nM | 717 nM | 976 nM | 781 nM | 803 nM
43 | UGUCAUGGAAACAUGAACGUUGAUGUUCGACGAGGACCGGUACGGCCGCCACUCGAGUAAUAGUCAGUGAUGUUGACUUGUCUAA [KL-SSTryp-A form1 sub3] | 74.2 nM | 107 nM | 91.8 nM | 131 nM | 76.5 nM
